To fix the notation:
B1: 108 (Knob-Fab+CEA-Hole) (bispecific antibody, human IgG4 S228P, kappa, F234A L235A)
heavy: ESKYGPPCPPCPAPEAAGGPSVFLFPPKPKDTLMISRTPEVTCVVVDVSQEDPEVQFNWYVDGVEVHNAKTKPREEQFNSTYRVVSVLTVLHQDWLNGKEYKCKVSNKGLPSSIEKTISKAKGQPREPQVYTLPPCQEEMTKNQVSLWCLVKGFYPSDIAVEWESNGQPENNYKTTPPVLDSDGSFFLYSRLTVDKSRWQEGNVFSCSVMHEALHNHYTQKSLSLSLGGGGSGGGGSEVKLLESGGGLVQPKGSLKLSCAASGFTFNTYAMNWVRQAPGKGLEWVARIRSKYNNYATYYADSVKDRFTISRDDSQSILYLQMNNLKTEDTAMYYCVRHGNFGNSYVSWFAYWGQGTLVTVSSASTKGPSVFPLAPCSRSTSESTAALGCLVKDYFPEPVTVSWNSGALTSGVHTFPAVLQSSGLYSLSSVVTVPSSSLGTKTYTCNVDHKPSNTKVDKRV
chain: EVQLVESGGGFVQAGESLTLSCTSSTLTFTPYRMAWYRQAPGKQRDLVADISSGDGRTTNYADFAKGRFTISRDNIKNTVFLRMTNLKPEDTAVYYCNTFVSFVGIARSWGQGTQVTVSSESKYGPPCPPCPAPEAAGGPSVFLFPPKPKDTLMISRTPEVTCVVVDVSQEDPEVQFNWYVDGVEVHNAKTKPREEQFNSTYRVVSVLTVLHQDWLNGKEYKCKVSNKGLPSSIEKTISKAKGQPREPQVCTLPPSQEEMTKNQVSLSCAVKGFYPSDIAVEWESNGQPENNYKTTPPVLDSDGSFFLVSRLTVDKSRWQEGNVFSCSVMHEALHNRFTQKSLSLSL
light: QAVVTQESALTTSPGETVTLTCRSSTGAVTTSNYANWVQEKPDHLFTGLIGGTNKRAPGVPARFSGSLIGDKAALTITGAQTEDEAIYFCALWYSNLWVFGGGTKVEIKRTVAAPSVFIFPPSDEQLKSGTASVVCLLNNFYPREAKVQWKVDNALQSGNSQESVTEQDSKDSTYSLSSTLTLSKADYEKHKVYACEVTHQGLSSPVTKSFNRGEC
notes: TA1 Fab, C17 VHH, IgG4 Fc KIH
B2: 112 (Knob-CEA+Hole-Fab) (bispecific antibody, human IgG4 S228P, kappa, F234A L235A)
chain: ESKYGPPCPPCPAPEAAGGPSVFLFPPKPKDTLMISRTPEVTCVVVDVSQEDPEVQFNWYVDGVEVHNAKTKPREEQFNSTYRVVSVLTVLHQDWLNGKEYKCKVSNKGLPSSIEKTISKAKGQPREPQVYTLPPCQEEMTKNQVSLWCLVKGFYPSDIAVEWESNGQPENNYKTTPPVLDSDGSFFLYSRLTVDKSRWQEGNVFSCSVMHEALHNHYTQKSLSLSLGGGGSGGGGSEVQLVESGGGFVQAGESLTLSCTSSTLTFTPYRMAWYRQAPGKQRDLVADISSGDGRTTNYADFAKGRFTISRDNIKNTVFLRMTNLKPEDTAVYYCNTFVSFVGIARSWGQGTQVTVSS
heavy: B1 heavy with Y131C, C136S, W148S, L150A, Y189V, H217R, Y218F
light: B1 light
notes: TA1 Fab, C17 VHH, IgG4 Fc KIH
B3: 110 (CEA-Knob+Hole-Fab) (bispecific antibody, human IgG4 S228P, kappa, F234A L235A)
chain: B1 chain with C251Y, S256C, S268W, A270L, V309Y, R337H, F338Y
heavy: B1 heavy with Y131C, C136S, W148S, L150A, Y189V, H217R, Y218F
light: B1 light
notes: TA1 Fab, C17 VHH, IgG4 Fc KIH
B4: 111 (Knob+CEA-Hole-Fab) (bispecific antibody, human IgG4 S228P, kappa, F234A L235A)
chain: ESKYGPPCPPCPAPEAAGGPSVFLFPPKPKDTLMISRTPEVTCVVVDVSQEDPEVQFNWYVDGVEVHNAKTKPREEQFNSTYRVVSVLTVLHQDWLNGKEYKCKVSNKGLPSSIEKTISKAKGQPREPQVYTLPPCQEEMTKNQVSLWCLVKGFYPSDIAVEWESNGQPENNYKTTPPVLDSDGSFFLYSRLTVDKSRWQEGNVFSCSVMHEALHNHYTQKSLSLSL
heavy: EVQLVESGGGFVQAGESLTLSCTSSTLTFTPYRMAWYRQAPGKQRDLVADISSGDGRTTNYADFAKGRFTISRDNIKNTVFLRMTNLKPEDTAVYYCNTFVSFVGIARSWGQGTQVTVSSESKYGPPCPPCPAPEAAGGPSVFLFPPKPKDTLMISRTPEVTCVVVDVSQEDPEVQFNWYVDGVEVHNAKTKPREEQFNSTYRVVSVLTVLHQDWLNGKEYKCKVSNKGLPSSIEKTISKAKGQPREPQVCTLPPSQEEMTKNQVSLSCAVKGFYPSDIAVEWESNGQPENNYKTTPPVLDSDGSFFLVSRLTVDKSRWQEGNVFSCSVMHEALHNRFTQKSLSLSLGGGGSGGGGSEVKLLESGGGLVQPKGSLKLSCAASGFTFNTYAMNWVRQAPGKGLEWVARIRSKYNNYATYYADSVKDRFTISRDDSQSILYLQMNNLKTEDTAMYYCVRHGNFGNSYVSWFAYWGQGTLVTVSSASTKGPSVFPLAPCSRSTSESTAALGCLVKDYFPEPVTVSWNSGALTSGVHTFPAVLQSSGLYSLSSVVTVPSSSLGTKTYTCNVDHKPSNTKVDKRV
light: B1 light
notes: TA1 Fab, C17 VHH, IgG4 Fc KIH
B5: 109 (Knob-Fab+Hole-CEA) (bispecific antibody, human IgG4 S228P, kappa, F234A L235A)
heavy: B1 heavy
chain: B2 chain with Y131C, C136S, W148S, L150A, Y189V, H217R, Y218F
light: B1 light
notes: TA1 Fab, C17 VHH, IgG4 Fc KIH

Positions count from the first letter of the chain named.

In the first experiment the target is T1, human CD3ε/δ (ACRO systems, CDD-H52W1) (human, UniProt P07766 23-126; P04234 22-105).
T1 construct: bought recombinant heterodimer; also called human CD3 epsilon/delta; Human CD3ε/CD3δ
The experiment can be described thus: serum-stability ELISA, Day 1 vs Day 0.
Procedure: (§1) The samples to be tested were centrifuged at 4° C. at 12000 rpm for 30 minutes to remove the precipitate. 200 μl of each sample to be tested (0.5 mg/ml) was collected in a 1.5 ml Eppendorf tube. An equal volume of human serum (GEMINI, H2OYOOK) was added, mixed thoroughly, and the mixture was incubated in a 37° C. constant temperature CO₂ incubator. For a total of 10 days, 40 μl samples was aspirated every day and stored at −20° C.
(§2) Enzyme-linked immunosorbent assay (ELISA) was used to test the bispecific antibodies' binding to human CEA and human CD3 epsilon/delta antigen. The steps are as follows: the antigen human CD3ε/δ (ACRO systems, CDD-H52W1) and the recombinant tumor antigen human CEA (CEACAM-5/CD66e, ACRO systems, CE5-H5226) were diluted to 1 μg/ml with PBS, and then added to the 96-well plate at 100 μl per well. The wells were coated overnight at 4° C. After washing 3 times with 0.05% PBST, 200 μl 5% skimmed milk powder was added to each well and incubated at 37° C. for 2 h. After washing 3 times with 0.05% PBST, 100 μl primary antibody sample (10 μg/ml) was added to each well, and incubated at 37° C. for 2 h. After washing 3 times with 0.05% PBST, 100 μl (1:6000) diluted secondary antibody goat anti-human Fc-HRP (sigma, A2170) was added to each well, incubated at room temperature for 1 h. After washing 8 times with 0.05% PBST, 50 μl TMB color developing solution was added to each well, and incubated at room temperature for 10-15 min. 50 μl 1 mM HCl was added to each well to stop the color development. 450 nm Absorbance (OD) was read.
(§3) The binding of antibodies to antigen was calculated according to the following formula: Binding (%)=[(ODdayn−ODb)/(ODday0−ODb)]×100%. ODdayn: experimental well (the protein was stored in the serum for n days); ODday0: control well (the protein was not stored in the serum); ODb: blank well (no primary antibody added).
For B1, the Binding % was 93%.

For B2, the Binding % worked out at 99%.

Regarding B3, the Binding % turned out to be 68.5%.

As for B4, the Binding % came out at 93.2%.

Molecule B5 displayed a Binding % of 97.5%.

Another experiment addresses T1, human CD3ε/δ (ACRO systems, CDD-H52W1). As to the kind of experiment: serum-stability ELISA, Day 2 vs Day 0.
Procedure: as §1, §2, §3
B1 displayed a Binding % of 98%.

Turning to B2, the Binding % is 102%.

B3 returned a Binding % of 74.3%.

In turn, B4 yielded a Binding % of 99.3%.

For B5, the Binding % is 88.5%.

The next experiment shares this target. As to the kind of experiment: serum-stability ELISA, Day 5 vs Day 0. (In general: In an ELISA, binding on a coated surface is turned into a signal by an enzyme label.)
Procedure: as §1, §2, §3
Turning to B1, the Binding % was 96.1%.

In turn, B2 returned a Binding % of 104%.

On to B3, for which the Binding % came out at 78.1%.

B4: the Binding % came to 103%.

Regarding B5, the Binding % is 88%.

For another experiment the target is unchanged. The experiment can be described thus: serum-stability ELISA, Day 6 vs Day 0.
Procedure: as §1, §2, §3
Molecule B1 gave a Binding % of 98.4%.

On to B2, for which the Binding % came out at 110%.

For B3, the Binding % turned out to be 76.9%.

B4 registered a Binding % of 99.2%.

As to B5, the Binding % was 85.7%.

The next experiment has the same target. The experiment can be described thus: serum-stability ELISA, Day 7 vs Day 0.
Procedure: as §1, §2, §3
The molecule B1 came in with a Binding % of 98.8%.

Regarding B2, the Binding % was 104%.

In turn, B3 came in with a Binding % of 77.5%.

The molecule B4 came in with a Binding % of 106%.

The molecule B5 registered a Binding % of 87.6%.

The target is the same in another experiment. The experiment can be described thus: serum-stability ELISA, Day 9 vs Day 0.
Procedure: as §1, §2, §3
B1 came in with a Binding % of 98.5%.

B2 yielded a Binding % of 102%.

Consider B3, for which the Binding % turned out to be 77%.

As to B4, the Binding % was 96.5%.

Turning to B5, the Binding % was found to be 83.3%.

A further experiment has the same target. As to the kind of experiment: serum-stability ELISA, Day 10 vs Day 0.
Procedure: as §1, §2, §3
Molecule B1 showed a Binding % of 66.7%.

Turning to B2, the Binding % was 98.4%.

B3 showed a Binding % of 56.1%.

In turn, B4 gave a Binding % of 78.2%.

B5 had a Binding % of 62.1%.

Another experiment shares this target. The experiment can be described thus: serum-stability ELISA, Day 0 (reference).
Procedure: as §1, §2, §3
B1 returned a Binding % of 100%.

In turn, B2 showed a Binding % of 100%.

Molecule B3 came in with a Binding % of 100%.

The molecule B4 gave a Binding % of 100%.

In turn, B5 returned a Binding % of 100%.

These data come from patent US20240400715A1 (VIBRANT PHARMA, published 2024).
